From patent US20190127480A1 (Regeneron, published 2019)
Like-named read-outs stand apart in the source and are kept apart here.

How the values were obtained:
[1] = biological target: T1, human CD3 expressed on cells (Jurkat cells; human T-cells of PBMC) (human, UniProt P09693 23-182; P20963 22-164); test: cell-based or functional assay
[2] = biological target: cynomolgus monkey CD3 expressed on monkey T-cells (PBMCs) (cynomolgus monkey, UniProt Q95LI5 22-198; Q95LI8 22-171); test: cell-based or functional assay
[3] = biological target: T1, human CD3 expressed on cells (Jurkat …); test: cell-based or functional assay; remark: listed apart in the source
[4] = biological target: T1, human CD3 expressed on cells (Jurkat …); test: FACS titration on Jurkat cells, monovalent 1-arm antibody
Protocol: (§1) FACS data was acquired using the following protocol: Cells at 2×10⁵ per well were incubated with serially diluted antibodies for 30 min on ice. Post incubation, cells were washed and secondary antibody was added and incubated for an additional 30 minutes. After incubation, cells were washed, re-suspended in cold PBS containing 1% BSA and analyzed by flow cytometry with viable Jurkat cells gated by side and forward scatters. The EC₅₀s for cell binding titration were determined using Prism software with values calculated using a 4-parameter non-linear regression analysis.

[5] = biological target: T1, human CD3 expressed on cells (Jurkat …); test: cell-based or functional assay; remark: listed apart in the source
[6] = biological target: T1, human CD3 expressed on cells (Jurkat …); test: cell-based or functional assay; remark: listed apart in the source
[7] = biological target: T1, human CD3 expressed on cells (Jurkat …); test: FACS titration on Jurkat cells (CD3+ human T-cell line)
Protocol: as §1

cynomolgus monkey CD3 expressed on monkey T-cells (PBMCs), sequence (Q95LI5 22-198, chain 1 of 2): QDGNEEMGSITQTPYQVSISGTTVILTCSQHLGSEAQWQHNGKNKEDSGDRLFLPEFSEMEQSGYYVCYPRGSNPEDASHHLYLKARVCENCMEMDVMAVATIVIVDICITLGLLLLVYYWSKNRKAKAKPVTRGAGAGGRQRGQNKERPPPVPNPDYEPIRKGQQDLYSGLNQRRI
cynomolgus monkey CD3 expressed on monkey T-cells (PBMCs), sequence (Q95LI8 22-171, chain 2 of 2): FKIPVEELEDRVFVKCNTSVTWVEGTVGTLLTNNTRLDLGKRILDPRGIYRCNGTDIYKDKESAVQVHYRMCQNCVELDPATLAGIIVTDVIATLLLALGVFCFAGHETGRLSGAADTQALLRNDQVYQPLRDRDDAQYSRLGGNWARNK
T1 sequence (chain, as listed by the source, chain 1 of 4): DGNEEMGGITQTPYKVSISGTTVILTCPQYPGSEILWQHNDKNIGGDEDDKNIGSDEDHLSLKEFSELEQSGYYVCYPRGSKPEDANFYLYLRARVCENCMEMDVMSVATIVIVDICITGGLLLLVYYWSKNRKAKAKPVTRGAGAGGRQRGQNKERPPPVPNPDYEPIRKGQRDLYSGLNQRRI
T1 sequence (chain, as listed by the source, chain 2 of 4): as the sequence (Q95LI8 22-171, chain 2 of 2) above, with V5I, K15N, V20I, T32S, N33D, N34I, A64T, N74S, L83V, R141H counted along it
T1 sequence (P09693 23-182, chain 3 of 4): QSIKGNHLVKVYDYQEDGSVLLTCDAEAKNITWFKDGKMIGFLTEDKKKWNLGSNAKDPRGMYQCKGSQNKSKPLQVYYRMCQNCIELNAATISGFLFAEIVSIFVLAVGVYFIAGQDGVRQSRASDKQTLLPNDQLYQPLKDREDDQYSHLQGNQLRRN
T1 sequence (P20963 22-164, chain 4 of 4): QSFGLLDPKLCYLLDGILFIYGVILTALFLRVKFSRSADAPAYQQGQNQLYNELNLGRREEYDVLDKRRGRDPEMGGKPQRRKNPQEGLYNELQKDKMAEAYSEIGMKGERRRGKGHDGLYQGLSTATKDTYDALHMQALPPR

Binder	EC50 [M] hPBMC Proliferation [1] [M]	EC50 [M] mfPBMC Proliferation [2] [M]	EC50 [4] [pM]	EC50 [M] hPBMC Proliferation [5] [M]	EC50 [7] [pM]	U937 Cytotoxicity Human T-cells [3] [pM]	U937 Cytotoxicity Human T-cells [6] [pM]
H1H7223P (antibody, human IgG1, V domains shown, Monovalent 1-arm format: second Fab removed, only the Fc portion (CH2-CH3) expressed; human IgG1 Fc; tied by the numerical identifier; also called H1H7223B) VH: QVQLVESGGGLVQPGRSLRLSCAASGFTFADYTMHWVRQAPGKGLEWVSDISWNSGSMGYADSVKGRFTISRDNAKKSLYLQMNSLRTEDTALYYCAKDGSGYGKYFFYAMDVWGQGTTVTVSS VL: not shown	1.07e-12	6.75e-11	937	–	–	5.3	–
H1H7198P (antibody, human IgG1, V domains shown, Monovalent 1-arm format: second Fab removed, only the Fc portion (CH2-CH3) expressed; human IgG1 Fc; tied by the numerical identifier; also called H1H7198B) VH: EVQLVESGGGLVQPGRSLRLSCAASGFTFADYTMHWVRQVPGKGLEWVSDISWNSGSKDYADSVKGRFTISRDNAKNFLYLQMNSLRAEDTALYYCVKYGSGYGKFYFYAMDVWGQGTTVTVSS VL: not shown	2.55e-12	2.29e-12	726	–	–	5.21	–
H1H7203P (antibody, human IgG1, V domains shown, Monovalent 1-arm format: second Fab removed, only the Fc portion (CH2-CH3) expressed; human IgG1 Fc; tied by the numerical identifier; also called H1H7203B) VH: EVQLVQSGGGLVQPGRSLRLSCAASGFTFADYTMHWVRQTPGKGLEWVSGISWNSGSKDYADSVKGRFTISRDNAKNSLYLQMNSLRTEDTALYYCAKYGSGYGRYFFYAMDVWGQGTTVTVSS VL: not shown	1.64e-12	4.97e-13	3240	–	–	5.47	–
H1H7204P (antibody, human IgG1, V domains shown, Monovalent 1-arm format: second Fab removed, only the Fc portion (CH2-CH3) expressed; human IgG1 Fc; tied by the numerical identifier; also called H1H7204B) VH: EVQLVESRGALVQPGRSLRLSCAASGFAFNDYTMHWVRQAPGKGLEWVSDISWNSNSKDYADSVKGRFTISRDNAKNSLYLQMNSLRAEDTALYYCVKDGSGYGKFSLYALDVWGQGTTVTVSS VL: not shown	1.51e-12	1.26e-11	2290	–	–	10.8	–
H1H5791B (antibody, human IgG1, V domains shown, H1H: human IgG1 Fc) VH: QVQLVESGAEVKKPGASVKVSCKTSGYTLSGYYMHWMRQAPGQGLEWMGWINPKSGVTNYAQKFQDRVAMTRDTSISTAYMELSRLRSDDTAVYYCARMGDGAVFDFWAQGTLVTVSS VL: DIQLTQSPSSLSASVGDRVTITCRASQRISSFLNWYQQKPGKAPKLLIYTASNLQNGVPSRFSGSGSGTDFTLTISSLQPEDFATYYCQQSYRTPLTFGGGTKLEIKR	–	–	–	1.75e-12	3770	–	80.1
H1H5801B (antibody, human IgG1, V domains shown, H1H: human IgG1 Fc) VH: QVQLVQSGGGVVQPGGSLRLSCAASGFTFDDYAMHWVRQAPGKGLEWVSLISGDGGSTYYADSVKGRFTISRDNSKNSLYLQMNSLRTEDTALYYCAKDDSSSSWYYYYYGMDVWGRGTTVTVSS VL: DIQMTQSPSSLSASVGDRVTITCRASQRISSYLNWYQQKPGKAPKVLISVASSLQSGVPSRFSGSGSGTDFTLTISSLQPEDFASYYCQQSYNTPLTFGGGTKVEIKR	–	–	–	1.09e-12	15500	–	92.3
H1H5792B (antibody, human IgG1, V domains shown, H1H: human IgG1 Fc) VH: QVQLVESGGGVVQPGRSLRLSCAASGFTFSSYGMHWVRQAPGKGLEWVSTISFDGSNKYYADSVKGRFTISRDNSKNTLYLQMNSLRPEDTAVYYCAKGGGTSGSYFYYGMDVWGQGTTVTVSS VL: AIQMTQSPSSLSASVGDRVTITCRASQRISSFLNWYQQKPGKAPKLLIYTASNLQNGVPSRFSGSGSGTDFTLTISSLQPEDFATYYCQQSYRTPLTFGGGTKLEIKR	–	–	–	6.47e-12	5870	–	140
H1H5793B (antibody, human IgG1, V domains shown, H1H: human IgG1 Fc) VH: QVQLVQSGTEVKKPGASMKVSCKASGYTFTGYYIHWVRQAPGQGLEWMGWINPNSDVTKYAQKFQGRVTLTRDTSISAAYIDLSRLRSDDTAIYYCARMGDGAVFDYWGQGTLVTVSS VL: DIQLTQSPSSLSASVGDRVTITCRASQRISSYLNWYQQKPGKAPKVLISVASSLQSGVPSRFSGSGFGTDFTLTISSLQPEDSASYYCQQSYNTPLTFGGGTKLEIKR	–	–	–	3.28e-12	4620	–	88.5
H1H5798B (antibody, human IgG1, V domains shown, H1H: human IgG1 Fc) VH: QVQLVQSGGGLVKPGGSLRLSCAASGFTFSSYDMSWVRQAPGKGLEWVSYISSSGNTIHYADSVKGRFTISRDNSKNSLYLQMNSLRAEDTAVYYCAKAGPATVTRRYYYYYGLDVWGQGTTVTVSS VL: DIVMTQSPSSLSASVRDRVTITCRASQRISSYLNWFQQKPGKAPKVLIYTASSLQNGVPSRFSGSGSGTDFTLTISSLQPEDFATYYCQQSYRTPLTFGGGTKVEIKR	–	–	–	2.59e-12	5570	–	181
H1H5790B (antibody, human IgG1, V domains shown, H1H: human IgG1 Fc) VH: EVQLVESGGGVVQPGRSLRLSCAASGFTFSYYGMHWVRQAPGKGLEWVAVISFDGKNKYYADSVMGRFTISRDNSKNTLYLQMNSLRAEDSAVFFCARSYDILTGYGAGYSYHYGMDVWGQGTTVTVSS VL: AIQMTQSPSSLSASVGDRVTITCRASQRISSFLNWYQQKPGKAPKLLIYTASNLQNGVPSRFSGSGSGTDFTLTISSLQPEDFATYYCQQSYRTPLTFGGGTKVEIKR	–	–	–	2.71e-12	3550	–	87.1
H1H5795B (antibody, human IgG1, V domains shown, H1H: human IgG1 Fc) VH: EVQLVESGAEVKKPGASVKVSCKTSGYSFIGYYIHWMRQAPGQGLEWMGWINPKSGVTNYAQRFQGRVTMTRDTSISTAYMELSRLKSDDTAVYFCARMGDGAVFDFWGQGTLVTVSS VL: DIQLTQSPSSLSASVGDRVTITCRASQRISSFLNWYQQKPGKVPKLLIYTASNLQNGVPSRFSGTGSGTDFTLTISSLQPEDFATYYCQQSYRTPLTFGGGTKVDIKR	–	–	–	3.09e-12	2040	–	67.4
H1H5797B (antibody, human IgG1, V domains shown, H1H: human IgG1 Fc) VH: QVQLVQSGTEVKKPGASVKVSCKASGYTFTGYYMHWVRQAPGQGLEWMGWINPNSDVTNYAQKFQGRVTLTRDTSISTAYIDLSRLRSDDTAIYYCARMGDGAVFDYWGQGTLVTVSS VL: DIQMTQSPSSLSASVGDRVTITCRASQRISSYLNWYQQKPGKAPKVLISVASSLQSGVPSRFSGSGSGTDFTLTISSLQPEDFASYYCQQSYNTPLTFGGGTKVEIKR	–	–	–	1.07e-11	39600	–	576

Now from value to binder, other results behind:

EC50 [M] hPBMC Proliferation [1] [M]	EC50 [M] mfPBMC Proliferation [2] [M]	EC50 [4] [pM]	EC50 [M] hPBMC Proliferation [5] [M]	EC50 [7] [pM]	Binder	U937 Cytotoxicity Human T-cells [3] [pM]	U937 Cytotoxicity Human T-cells [6] [pM]
1.46e-12	7.02e-12	51900	–	–	H1H7208P (antibody, human IgG1, V domains shown, Monovalent 1-arm format: second Fab removed, only the Fc portion (CH2-CH3) expressed; human IgG1 Fc; tied by the numerical identifier; also called H1H7208B) VH: QVQLVESGGGLVHPGRSLRLSCAASGFKFDDYTMHWVRQAPGKGLEWVSDISWNSGSKGYADSVKGRFTISRDNAKDSLYLQMDSLRAADTAFYYCAKDKSGYGHFYYYAMDVWGQGTTVTVSS VL: not shown	45.9	–
1.03e-12	4.9e-11	1500	–	–	H1H7232P (antibody, human IgG1, V domains shown, Monovalent 1-arm format: second Fab removed, only the Fc portion (CH2-CH3) expressed; human IgG1 Fc; tied by the numerical identifier; also called H1H7232B) VH: EVQLVESGGGLVHPGRSLRLSCAASGFTFDDYTMHWVRQAPGKGLEWVSDISWNSGSRGYADSVKGRFTISRDNAENSLYLQMNSLRAEDTALYYCAKDKSGYGHYYYYAMDVWGQGTTVTVSS VL: not shown	9.96	–
7.34e-13	4.35e-12	715	–	–	H1H7233P (antibody, human IgG1, V domains shown, Monovalent 1-arm format: second Fab removed, only the Fc portion (CH2-CH3) expressed; human IgG1 Fc; tied by the numerical identifier; also called H1H7233B) VH: EVQLVESGGGLVQPGGSLRLSCEASGFTFADYTLHWVRQAPGKGLEWVSDISWNSGTRGYADSVRGRFTISRDNAKKSLYLQMNSLRSEDTALYYCVKDGSGYGRYNFYAMDVWGQGTTVTVSS VL: not shown	11.9	–
9.52e-13	2.26e-11	795	–	–	H1H7226P (antibody, human IgG1, V domains shown, Monovalent 1-arm format: second Fab removed, only the Fc portion (CH2-CH3) expressed; human IgG1 Fc; tied by the numerical identifier; also called H1H7226B) VH: EVQLVQSGGGLVQPGRSLRLSCAASGFTFSDYTMHWVRQGPGKGLEWVSDISWNSGSKGYTDSVKGRFTISRDNAKKSLYLQMNSLRAEDTALYYCVKDGSGYGKYHFYAMDVWGQGTLVTVSS VL: not shown	10.4	–
2.75e-12	2.81e-13	701	–	–	H1H7211P (antibody, human IgG1, V domains shown, Monovalent 1-arm format: second Fab removed, only the Fc portion (CH2-CH3) expressed; human IgG1 Fc; tied by the numerical identifier; also called H1H7211B) VH: EVQLVESGGGLVHPGRSLRLSCTASGFKFADYTMHWVRQAPGKGLEWVSDISWNSGSKGYADSVKGRFTISRDNDKNSLYLQMNSLRGEDTALYYCAKDGSGYGRFHFYAIDVWGQGTTVTVSS VL: not shown	7.89	–
2.6e-12	1.72e-12	1400	–	–	H1H7221P (antibody, human IgG1, V domains shown, Monovalent 1-arm format: second Fab removed, only the Fc portion (CH2-CH3) expressed; human IgG1 Fc; tied by the numerical identifier; also called H1H7221B) VH: EVQLVESGGGLVQPGRSLRLSCVASGFTFDDYSMHWVRQAPGKGLEWVSGISWNSGSKDYADSVKGRFTISRDNAKNSLYLQMNSLRAEDTALYYCAKYGSGYGKFYHYGLDVWGQGTTVTVSS VL: not shown	9.21	–
1.15e-12	–	1950	–	–	H1H7269P (antibody, human IgG1, V domains shown, Monovalent 1-arm format: second Fab removed, only the Fc portion (CH2-CH3) expressed; human IgG1 Fc; tied by the numerical identifier; also called H1H7269B) VH: QVQLVESGGGLVQPGRSLRLSCAASGFKFDDYTMHWVRQGPGKGLEWVSDISWSGGSIDYTDSVKGRFSISRDNAKNSLYLQMNSLRVEDTALYYCVKDKSGYGKYSYGLDVWGQGTTVTVSS VL: not shown	10.8	–
